According to the supplement of paper PMC9112550, “Optimization of the antimicrobial peptide Bac7 by deep mutational scanning” (BMC Biology, 2022):

system: Escherichia coli TOP10; test: shrunken log2 fold change of peptide-encoding DNA abundance (4.5 h post-induction vs induction); higher = less antimicrobial activity (less host growth inhibition); settings: time post-induction: 4.5 h; library: site-saturation at positions 5, 18, 19, 20
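Note: peptides expressed intracellularly from a pBAD plasmid library in pooled LB shake-flask culture, induced with 0.3% L-arabinose, DNA abundance read by NGS, three biological replicates, DESeq2 with apeglm shrinkage.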

**Q.** RRIRVRPPRLPRPRPRPMSDPRP was tested. Which “shrunken log2 fold change” value did it give?
**A.** Its value is 0.032.

**Q.** RRIRQRPPRLPRPRPRPQTIPRP was tested. Which “shrunken log2 fold change” value did it give?
**A.** Its value is -0.16.

**Q.** For RRIRGRPPRLPRPRPRPEASPRP, which “shrunken log2 fold change” value is on record?
**A.** The value was 0.708.

**Q.** How did the “shrunken log2 fold change” value turn out when RRIRYRPPRLPRPRPRPGYCPRP was run?
**A.** The value was -0.235.

**Q.** How did the “shrunken log2 fold change” value turn out when RRIRYRPPRLPRPRPRPRSAPRP was run?
**A.** The value was -0.0647.

**Q.** For RRIRARPPRLPRPRPRPTIWPRP, which “shrunken log2 fold change” value is on record?
**A.** Its value is 0.206.

**Q.** For RRIRKRPPRLPRPRPRPNQFPRP, which “shrunken log2 fold change” value is on record?
**A.** Its value is 0.103.

**Q.** How did the “shrunken log2 fold change” value turn out when RRIRPRPPRLPRPRPRPAKTPRP was run?
**A.** The value was -0.168.

**Q.** How did the “shrunken log2 fold change” value turn out when RRIRTRPPRLPRPRPRPPFSPRP was run?
**A.** Its value is 0.0411.

**Q.** With RRIRRRPPRLPRPRPRPYTSPRP as the sequence, how does the “shrunken log2 fold change” value read?
**A.** The value was -0.313.

**Q.** RRIRYRPPRLPRPRPRPSVNPRP was tested. Which “shrunken log2 fold change” value did it give?
**A.** Its value is -0.177.

**Q.** With RRIRDRPPRLPRPRPRPTDWPRP as the sequence, how does the “shrunken log2 fold change” value read?
**A.** Its value is 0.516.

**Q.** With RRIRIRPPRLPRPRPRPPLVPRP as the sequence, how does the “shrunken log2 fold change” value read?
**A.** Its value is 0.0482.

**Q.** With RRIRNRPPRLPRPRPRPRCTPRP as the sequence, how does the “shrunken log2 fold change” value read?
**A.** Its value is -0.263.

**Q.** RRIRARPPRLPRPRPRPSVDPRP was tested. Which “shrunken log2 fold change” value did it give?
**A.** The value was 0.125.

**Q.** For RRIRTRPPRLPRPRPRPTYAPRP, which “shrunken log2 fold change” value is on record?
**A.** Its value is -0.0854.

**Q.** RRIRLRPPRLPRPRPRPCWDPRP was tested. Which “shrunken log2 fold change” value did it give?
**A.** The value was -0.104.

**Q.** Which “shrunken log2 fold change” value does the source give for RRIRQRPPRLPRPRPRPHGYPRP here?
**A.** The value was -0.138.

**Q.** How did the “shrunken log2 fold change” value turn out when RRIRGRPPRLPRPRPRPEMEPRP was run?
**A.** The value was -0.0341.

**Q.** Which “shrunken log2 fold change” value does the source give for RRIRIRPPRLPRPRPRPLNVPRP here?
**A.** Its value is -1.23.

**Q.** RRIRERPPRLPRPRPRPNNYPRP was tested. Which “shrunken log2 fold change” value did it give?
**A.** Its value is -0.821.

**Q.** With RRIRLRPPRLPRPRPRPQDLPRP as the sequence, how does the “shrunken log2 fold change” value read?
**A.** Its value is -0.0513.

**Q.** RRIRWRPPRLPRPRPRPIKSPRP was tested. Which “shrunken log2 fold change” value did it give?
**A.** Its value is 0.0589.

**Q.** RRIRTRPPRLPRPRPRPVETPRP was tested. Which “shrunken log2 fold change” value did it give?
**A.** Its value is 0.306.

**Q.** With RRIRLRPPRLPRPRPRPHWIPRP as the sequence, how does the “shrunken log2 fold change” value read?
**A.** Its value is -0.162.

**Q.** RRIRVRPPRLPRPRPRPFWAPRP was tested. Which “shrunken log2 fold change” value did it give?
**A.** Its value is 0.182.

**Q.** For RRIRDRPPRLPRPRPRPAPWPRP, which “shrunken log2 fold change” value is on record?
**A.** The value was 0.226.

**Q.** For RRIRTRPPRLPRPRPRPITTPRP, which “shrunken log2 fold change” value is on record?
**A.** The value was -0.438.

**Q.** Which “shrunken log2 fold change” value does the source give for RRIRSRPPRLPRPRPRPEKYPRP here?
**A.** The value was -1.28.

**Q.** Which “shrunken log2 fold change” value does the source give for RRIRTRPPRLPRPRPRPFCNPRP here?
**A.** Its value is 0.0687.

**Q.** Which “shrunken log2 fold change” value does the source give for RRIRTRPPRLPRPRPRPVTIPRP here?
**A.** The value was -0.0419.

**Q.** For RRIRLRPPRLPRPRPRPFIIPRP, which “shrunken log2 fold change” value is on record?
**A.** The value was -0.271.

**Q.** RRIRTRPPRLPRPRPRPQCKPRP was tested. Which “shrunken log2 fold change” value did it give?
**A.** Its value is -0.26.

**Q.** Which “shrunken log2 fold change” value does the source give for RRIRMRPPRLPRPRPRPTTKPRP here?
**A.** Its value is 0.268.

**Q.** For RRIRKRPPRLPRPRPRPWCEPRP, which “shrunken log2 fold change” value is on record?
**A.** The value was 0.157.

**Q.** Which “shrunken log2 fold change” value does the source give for RRIRGRPPRLPRPRPRPFESPRP here?
**A.** The value was 0.0306.

**Q.** RRIRPRPPRLPRPRPRPPFHPRP was tested. Which “shrunken log2 fold change” value did it give?
**A.** Its value is 0.011.

**Q.** For RRIRSRPPRLPRPRPRPRTKPRP, which “shrunken log2 fold change” value is on record?
**A.** Its value is 0.407.

**Q.** How did the “shrunken log2 fold change” value turn out when RRIRQRPPRLPRPRPRPFMAPRP was run?
**A.** Its value is -0.61.

**Q.** For RRIRMRPPRLPRPRPRPNHTPRP, which “shrunken log2 fold change” value is on record?
**A.** Its value is -0.213.

**Q.** How did the “shrunken log2 fold change” value turn out when RRIRTRPPRLPRPRPRPRCNPRP was run?
**A.** Its value is -0.36.

**Q.** With RRIRLRPPRLPRPRPRPDHAPRP as the sequence, how does the “shrunken log2 fold change” value read?
**A.** Its value is 0.0162.

**Q.** How did the “shrunken log2 fold change” value turn out when RRIRGRPPRLPRPRPRPFMSPRP was run?
**A.** Its value is -0.192.

**Q.** How did the “shrunken log2 fold change” value turn out when RRIRFRPPRLPRPRPRPWSQPRP was run?
**A.** Its value is -0.0158.

**Q.** How did the “shrunken log2 fold change” value turn out when RRIRRRPPRLPRPRPRPKNPPRP was run?
**A.** The value was 0.124.

**Q.** Which “shrunken log2 fold change” value does the source give for RRIRRRPPRLPRPRPRPVGDPRP here?
**A.** Its value is -0.0486.

**Q.** Which “shrunken log2 fold change” value does the source give for RRIRTRPPRLPRPRPRPMMDPRP here?
**A.** Its value is -0.141.

**Q.** With RRIRARPPRLPRPRPRPFFFPRP as the sequence, how does the “shrunken log2 fold change” value read?
**A.** Its value is 0.419.

**Q.** How did the “shrunken log2 fold change” value turn out when RRIRPRPPRLPRPRPRPCSQPRP was run?
**A.** Its value is -0.257.

**Q.** How did the “shrunken log2 fold change” value turn out when RRIRHRPPRLPRPRPRPYYKPRP was run?
**A.** Its value is -0.913.

**Q.** RRIRNRPPRLPRPRPRPLDDPRP was tested. Which “shrunken log2 fold change” value did it give?
**A.** The value was -0.0578.

**Q.** RRIRPRPPRLPRPRPRPIFWPRP was tested. Which “shrunken log2 fold change” value did it give?
**A.** The value was 1.25.

**Q.** With RRIRTRPPRLPRPRPRPQAYPRP as the sequence, how does the “shrunken log2 fold change” value read?
**A.** Its value is -0.629.

**Q.** Which “shrunken log2 fold change” value does the source give for RRIRERPPRLPRPRPRPISRPRP here?
**A.** Its value is -0.0122.

**Q.** How did the “shrunken log2 fold change” value turn out when RRIRHRPPRLPRPRPRPKEFPRP was run?
**A.** The value was -0.0336.

**Q.** RRIRTRPPRLPRPRPRPKAPPRP was tested. Which “shrunken log2 fold change” value did it give?
**A.** Its value is 0.317.

**Q.** RRIRKRPPRLPRPRPRPACIPRP was tested. Which “shrunken log2 fold change” value did it give?
**A.** Its value is 0.031.

**Q.** With RRIRFRPPRLPRPRPRPAMRPRP as the sequence, how does the “shrunken log2 fold change” value read?
**A.** Its value is 0.307.

**Q.** For RRIRFRPPRLPRPRPRPILFPRP, which “shrunken log2 fold change” value is on record?
**A.** The value was -0.0517.

**Q.** How did the “shrunken log2 fold change” value turn out when RRIRIRPPRLPRPRPRPHSKPRP was run?
**A.** Its value is -0.677.

**Q.** RRIRSRPPRLPRPRPRPDVRPRP was tested. Which “shrunken log2 fold change” value did it give?
**A.** The value was 0.0647.

**Q.** Which “shrunken log2 fold change” value does the source give for RRIRYRPPRLPRPRPRPAGWPRP here?
**A.** The value was 0.366.

**Q.** RRIRVRPPRLPRPRPRPMWCPRP was tested. Which “shrunken log2 fold change” value did it give?
**A.** Its value is -0.139.

**Q.** For RRIRRRPPRLPRPRPRPGIWPRP, which “shrunken log2 fold change” value is on record?
**A.** The value was 0.455.

**Q.** Which “shrunken log2 fold change” value does the source give for RRIRCRPPRLPRPRPRPPTFPRP here?
**A.** Its value is -0.331.

**Q.** With RRIRHRPPRLPRPRPRPTTKPRP as the sequence, how does the “shrunken log2 fold change” value read?
**A.** Its value is 0.00227.

**Q.** With RRIRKRPPRLPRPRPRPMAEPRP as the sequence, how does the “shrunken log2 fold change” value read?
**A.** Its value is 0.208.

**Q.** With RRIRRRPPRLPRPRPRPFIHPRP as the sequence, how does the “shrunken log2 fold change” value read?
**A.** The value was -0.18.

**Q.** For RRIRPRPPRLPRPRPRPFGIPRP, which “shrunken log2 fold change” value is on record?
**A.** Its value is -0.21.

**Q.** Which “shrunken log2 fold change” value does the source give for RRIRGRPPRLPRPRPRPKPKPRP here?
**A.** The value was 0.601.

**Q.** Which “shrunken log2 fold change” value does the source give for RRIRFRPPRLPRPRPRPHCFPRP here?
**A.** Its value is -0.0267.

**Q.** With RRIRQRPPRLPRPRPRPCVVPRP as the sequence, how does the “shrunken log2 fold change” value read?
**A.** The value was 0.0959.

**Q.** With RRIRCRPPRLPRPRPRPVHQPRP as the sequence, how does the “shrunken log2 fold change” value read?
**A.** The value was 0.11.

**Q.** With RRIRQRPPRLPRPRPRPRVVPRP as the sequence, how does the “shrunken log2 fold change” value read?
**A.** The value was 0.0149.

**Q.** With RRIRHRPPRLPRPRPRPDGWPRP as the sequence, how does the “shrunken log2 fold change” value read?
**A.** Its value is 0.191.
